Assay [1] deals with TargetA. In words: ELISA on TargetA, DARPin titrated.
Assay [2] has as its target TargetA. In words: SPR, bio-TargetA coated on NAD chip, DARPin 333.33-4.11 nM. (Surface plasmon resonance follows binding to a sensor surface in real time, without labels.)

The record followed here is US20250042957A1.

B1: 2-in-1 DARPin 24 (SEQ ID NO: 93) (designed binder)
chain: DLGKKLLQAARAGQLDEVRELLKAGADVNAKDSQGRTPLHLAAFAGHLEIVEVLLKAGADVNAKDHAGWTPLHLAAYAGHLEIVEVLVKAGADVNAKDTEGKTPLHIAAWFGHLEIVEVLLKAGADVNAKDKSGKTPLHLAARAGHLEIVEVLLKAGADVNAKDNSGQTPLHEAAWAGHLEIVEVLLKAGADVNAKNSRGWTPLHTAAQTGHLEIFEVLLKAGADVNAKNDKRVTPLHLAAALGHLEIVEVLLKAGADVNARDSWGTTPADLAAKYGHQDIAEVLQKAA
As to B1, the 50% effective concentration (EC50 (read off the curve)) (usually the concentration that produces a half-maximal response) with TargetA [1] was determined as 800 pM. Moreover, the Kd (usually the equilibrium constant for the complex coming apart) with TargetA [2] stood at 119 pM.

B2: 2-in-1 DARPin 25 (SEQ ID NO: 94) (designed binder)
chain: DLGKKLLQAARAGQLDEVRELLKAGADVNAKDSQGRTPLHLAAFAGHLEIVEVLLKAGADVNAKDHAGWTPLHLAAYAGHLEIVEVLVKAGADVNAKDTEGKTPLHIAAWFGHLEIVEVLLKAGADVNAKDKSGKTPLHLAARAGHLEIVEVLLKAGADVNAKDNSGQTPLHLAAWAGHLEIVEVLLKAGADVNAKNSRGWTPLHTAAQTGHLEIFEVLLKAGADVNAKNDKRVTPLHLAAALGHLEIVEVLLKAGADVNARDSWGTTPADLAAKYGHQDIAEVLQKAA
In turn, B2 registered a 50% effective concentration (EC50 (read off the curve)) with TargetA [1] of 700 pM. The Kd with TargetA [2] was determined as 18 pM.

B3: Parent DARPin no 4 (SEQ ID NO: 88) (designed binder)
chain: DLGKKLLQAARAGQLDEVRELLKAGADVNAKDSQGRTPLHLAAFAGHLEIVEVLLKAGADVNAKDHAGWTPLHLAAYAGHLEIVEVLVKAGADVNAKDTEGKTPLHIAAWFGHLEIVEVLLKAGADVNAQDKSGKTPADLTARAGHQDIAEVLQKAA
B3 had a Kd in the assay with TargetA [2] of 160 pM.

B4: 2-in-1 DARPin 23 (SEQ ID NO: 92) (designed binder)
chain: DLGKKLLQAARAGQLDEVRELLKAGADVNAKDSQGRTPLHLAAFAGHLEIVEVLLKAGADVNAKDHAGWTPLHLAAYAGHLEIVEVLVKAGADVNAKDTEGKTPLHIAAWFGHLEIVEVLLKAGADVNAKDKSGQTPLHLAAWAGHLEIVEVLLKAGADVNAKNSRGWTPLHTAAQTGHLEIFEVLLKAGADVNAKNDKRVTPLHLAAALGHLEIVEVLLKAGADVNARDSWGTTPADLAAKYGHQDIAEVLQKAA
Take B4: the EC50 (read off the curve) with TargetA [1] is 1000 pM. The same molecule returned a Kd with TargetA [2] of 24 pM.
